Assay results reported in patent US20260008856A1 (BLUEFIN BIOMEDICINE, published 2026).
Substitutions are numbered along the chain they refer to.

B1: 36A10_21B6 (antibody, V domains shown)
VH: QGQVVESGGGVVQPGRSLRLSCAASGFTFSSYTLHWVRQAPGKGLEWVAVIWYDGSNKYYVDSVKGRFTISRDNSKNTLYLQMNSLRAEDTAVYYCAREYGSGSYYNVYYGMDVWGQGTTVTLSS
VL: DIVMTQSPLSLPVTPGEPASISCRSSQSLLHSNGYNYLDWYLQKPGQSPHLLIYLASNRASGVPDRFSGSGSGTDFTLKISRVEAEDVGFYYCMQTLQIPLTFGGGTKVEIK
B2: 5G8_18A1 (antibody, V domains shown)
VH: QVELQESGPGLVKPSDTLSLTCTVTGGSISTYYWSWIRQPPGKGLEWIGYIFYTGTTNYNPSLKSRVTISVDASKNQFSLKLNSVTAADTAVYYCARDGSLDYWGQGALVTVSS
VL: DIQMTQSPSSLSASVGDRVTITCRASQSISNYLNWYQQKPGKAPKLLIFVASLLQSGVPSRFSGSGSGTDFTLTISSLQPEDFATYYCQQSYSTPFTFGPGTKLEIK
B3: 5D12_18A4 (antibody, V domains shown)
VH: QVQLQESGPGLVKPLGTLSLTCAVSGGSISNSNWWSWVRQPPGKGLEWIGEIYHSGSTNYNPSLKSRVTIALDWSKNQFSLQLRSVTAADTAVYYCARYGSGPFGGDCWGQGTLVTVSS
VL: DIQLTQSPSFLSASVGDRVTISCRASQGISSYLAWYQQKPGKAPKLLIYAASTLQGGVPSRFSGSGSGTTFTLTISSLQPEDFATYYCQQLNTYPFTFGPGTKLEIK
notes: Recombinant human antibody
B4: 37D11_21C2 (antibody, V domains shown)
VH: QVQIKESGPGLVKPSETLSLTCAVSGFSFSSGYYWGWIRQPPGKGLEWLGSFFHNGNTYYNPSLRSRVTISVDTSKNHFSLKLTSVTAADTAVYYCAGFGDLPHYHYYVMDVWGQGTTVTVSS
VL: EIVLTQSPATLSLSPGERATLSCRASQSVSSYLAWYQQKPGQAPRLLIYDASNRAIGIPARFSGSGSGTDFTLTISSLEPEDFAVYYCQQRSNWPPYTFGQGTKLEIK
B5: 39G1_21C4 (antibody, V domains shown)
VH: QVQLQESGPGLVKPSETLSLTCAVSGYSASGVYYWGWIRQPPGKGLEWIGNIYHSGSTYYNPSLERRVSISLDTSKNHFSLRLNFVTAADTAVYYCARDRFDAFDIWGQGTMVTVSS
VL: EIVMTQSPATLSVSPGERATLSCRASQSINNILAWYQQKPGQAPRLLIYGASTRATGIPARFSGSGSGTEFTLTISSLQSEDFAVYYCQQYNNWPLTFGGGTKVEIK
B6: 10C8_15A1 (antibody, V domains shown)
VH: QVQLVESGGGVVQPGRSLRISCAASGFTFRSYGMHWVRQAPGKGLEWVAIIWHDESYKYYVDSVKGRFTISRDNSKNTLYLQMNSLRAEDTAVYYCARGDYYGSGSYYDAFDIWGQGTMVTVSS
VL: DIQMTQSPSSLSASVGDRVIITCRASQGISNYLAWFQQKPGKCPNLLIYAASTLRSGVPSRFSGSGSGTDFTLTISSLQPEDVATYYCQKYNSAPYTFGQGTKVEIK
B7: 32F9_21A5 (antibody, V domains shown)
VH: QLQLVESGGGVVQPGRSLRLSCAASGFTFSSHGMHWVRQAPGKGLEWVAVIWYDGSSEYYADSVKGRFTISRDNSKNTLYLQMNSLRAEDTAVYYCARENVYGSGWFFDYWGQGSLVTVSS
VL: EIVMTQSPATLSVSPGERASLSCRASQSVGSNLAWYQQKPGQAPRLLIFGASTRATGIPARFSGSRSGTEFTLTISSLQSEDFALYYCQQYNNWPPWTFGQGTKLEIK
notes: Recombinant human antibody
B8: 31F9_21A1 (antibody, V domains shown)
VH: B7 VH with L2V, V11M, A23T, Y53F, S57N, A61V, S115T
VL: B7 VL with L105V
notes: Recombinant human antibody
B9: 32D4_21D6 (antibody, V domains shown)
VH: B7 VH with H32Y, S115T
VL: B7 VL with L105V
notes: Recombinant human antibody
B10: 33E9_21A6 (antibody, V domains shown)
VH: B7 VH with P14F, S115T
VL: B7 VL
notes: Recombinant human antibody
B11: 35D11_22A1 (antibody, V domains shown)
VH: B7 VH with H32Y, Y80F, E89D, S115T
VL: B7 VL with N92D
notes: Recombinant human antibody
B12: 39A9_28A4 (antibody, V domains shown)
VH: QVQLVESGGGVVQPGRSLRLSCAASGFTLSGYGMHWVRQAPGKGLEWVAVIWYDGSNKYYADSVKGRFTISRDNSKNMLFLQMNSLRAEDTAVYYCVRENGFGSGWFFDYWGQGNLVTVSS
VL: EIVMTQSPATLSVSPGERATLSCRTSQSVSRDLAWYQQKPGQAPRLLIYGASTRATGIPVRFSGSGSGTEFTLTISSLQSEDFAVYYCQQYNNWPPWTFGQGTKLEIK
notes: Recombinant human antibody
B13: 33H2_21B1 (antibody, V domains shown)
VH: EVQVVESGGGLVQPGGSLRLSCATSGFTFRSYWMTWVRQAPGKGLEWVANIKQDGSERHYVDSVKGRFTISRDNAKTSLYLQMSSLRAEDTAMYYCAREGYYGSGYFDYWGQGTLVTVSS
VL: DIQMTQSPSTLSASVGDRVIITCRASQSISRGLAWYQQKPGKAPKLLIYKASNLESGVPSRFSGSGSGTEFTLTISSLQPDDFAAYYCQQYSYYSHTFGQGTKVEIK
notes: Recombinant human antibody
B14: 34C11_21B2 (antibody, V domains shown)
VH: B13 VH with T24A, T35S, M93V, Y102F
VL: B13 VL with V104L
notes: Recombinant human antibody
B15: 36A12_21C1 (antibody, V domains shown)
VH: EVQLVESGGGLVQPGGSLRLSCAASGFTLSFYWMTWVRQAPGKGLEWVANIKQDGNEKNYVDSVKGRFTISKDNAKKSVFLQMNSLRAEDTAVYYCAREGYFGSGYFDYWGQGTLVTVSS
VL: B13 VL with I20T, S30N, R31S, G32W, N53T, A85P, Q90H, S92N, Y93S, S95P
notes: Recombinant human antibody
B16: 40C3_22B6 (antibody, V domains shown)
VH: B15 VH with Y60F, K72R
VL: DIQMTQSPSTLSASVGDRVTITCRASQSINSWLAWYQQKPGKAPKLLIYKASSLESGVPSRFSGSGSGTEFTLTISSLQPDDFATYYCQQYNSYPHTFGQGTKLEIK
notes: Recombinant human antibody
B17: 38G11_28A2 (antibody, V domains shown)
VH: B15 VH with L29F, F31S, T35S, N56S, N59H, K72R, K77N, V79L, F80Y
VL: B3 VL with S22T, G56S, T70E, L91Y, N92S, T93F, P95S, F96H, P100Q
notes: Recombinant human antibody
B18: 42D10_28A5 (antibody, V domains shown)
VH: QVQPKESGPGVVKPSETLSLTCAVSGFPISRGYYWGWIRQPPGKGLEWIGNIFHSGTTYYNPSLKSRVTISVDTSKNQISLKLTSVTAADTAVYYCVGFGDLPHYQYYVMDIWGQGTTVTVSS
VL: B4 VL with I56T
notes: Recombinant human antibody
B19: 34H8_21B4 (antibody, V domains shown)
VH: QVQLQESGPGLVKPSETLSLTCAVSGYSASGLYYWAWIRQPPGKGLEWIGNIYHSGRTYYNPSLESRVSISLDTSKHQVSLKLKSVTYADTAVYFCARDRFDGFDIWGQGTMVTVSS
VL: B5 VL with S28T, V104L
notes: Recombinant human antibody

These binders were tested against T1, human IL1RAP on IL1RAP positive human cell lines (EOL-1, Karpas 299; HEK-Blue reporter cells) (human, UniProt Q9NPH3 21-570) (assay: cell-based or functional assay).

Row | Binder | EC50, inhibition of signalling by 0.5 ng/ml IL-1beta in HEK-Blue IL-1beta reporter cells (Abs. 620 nm); row printed as 36A10_21C2 [nM] | EC50, inhibition of signalling by 0.5 ng/ml IL-1beta in HEK-Blue IL-1beta reporter cells (Abs. 620 nM) [nM]
1 | B1 | 0.29 | 
2 | B2 |  | 0.58

Biological target: T1, human IL1RAP on IL1RAP positive human …
Assay: cell-based or functional assay
Remark: another data set of the same source

Row | Binder | EC50, inhibition of signalling by 0.5 ng/ml IL-1a (IL-1alpha) in the HEK-Blue IL-1 reporter assay (Abs. 620 nm); row printed as 36A10_21C2 [nM] | EC50, inhibition of signalling by 0.5 ng/ml IL-1a (IL-1alpha) in the HEK-Blue IL-1 reporter assay (Abs. 620 nM) [nM]
3 | B1 | 0.66 | 
4 | B2 |  | 0.83

Biological target: T1, human IL1RAP on IL1RAP positive human …
Assay: cell-based or functional assay
Remark: another data set of the same source

Row | Binder | EC50, inhibition of signalling by 0.5 ng/ml IL-33 in HEK-Blue IL-33 reporter cells (Abs. 620 nM) [nM]
5 | B1 | 1.76

These binders were tested against T2, huIL1RAP ECD recombinant protein (human, UniProt Q9NPH3 21-367) (assay: Octet BLI, antibody on Protein A biosensor, recombinant huIL1RAP ECD).
T2 construct: also called recombinant human IL1RAP-ECD; recombinant human IL1RAP; not shown: C-terminal histidine tag for purification
Method: Affinity: The affinity of antibodies to various recombinant IL1RAP protein was determined on an Octet Red™ instrument. After loading reagents into a 96-well plate, the Octet Red™ with Protein A-conjugated biosensors was programmed as follows: 30 seconds for baseline #1; 120 seconds to immobilize the antibody; 30 seconds for baseline #2; 300 seconds for association of antibody to recombinant IL1RAP; and 300-600 seconds for dissociation of recombinant IL1RAP from the antibody.

Row | Binder | Kd [nM]
6 | B1 | 0.4
7 | B2 | 0.4
8 | B3 | 19
9 | B4 | 13
10 | B5 | 1.6
11 | B6 | 30
12 | B7 | 2
13 | B8 | 2
14 | B9 | 3
15 | B10 | 2
16 | B11 | 3
17 | B12 | 3
18 | B13 | 7
19 | B14 | 0.2
20 | B15 | 24
21 | B16 | 23
22 | B17 | 29
23 | B18 | 7
24 | B19 | 5

The binders below were run against T3, rat IL1RAP (Met1-Val570 plus Myc-DDK) on transfected 293 cells (Rattus norvegicus, UniProt Q63621 21-570) (assay: flow cytometry on 293 cells expressing rat IL1RAP (293-puro-ratIL1RAP) vs 293T-puro [cont.]).
T3 construct: whole, on cells; also called RR213032
Method: (§1) Staining for flow cytometry was performed in 1× cold PBS with 0.5% BSA. Primary antibodies (1 ug/ml) were incubated with live cells on ice for 30 minutes, after a brief wash, cells were incubated with Alexa Fluro® 488-conjugated anti-human IgG secondary antibody @1:1000 (709-546-149, Jackson ImmunoResearch). Acquisition of the data was performed on a MACSQuant® Flow Cytometers (Miltenyi Biotec) and analyzed with FlowJo software.

T3 sequence (Q63621 21-570): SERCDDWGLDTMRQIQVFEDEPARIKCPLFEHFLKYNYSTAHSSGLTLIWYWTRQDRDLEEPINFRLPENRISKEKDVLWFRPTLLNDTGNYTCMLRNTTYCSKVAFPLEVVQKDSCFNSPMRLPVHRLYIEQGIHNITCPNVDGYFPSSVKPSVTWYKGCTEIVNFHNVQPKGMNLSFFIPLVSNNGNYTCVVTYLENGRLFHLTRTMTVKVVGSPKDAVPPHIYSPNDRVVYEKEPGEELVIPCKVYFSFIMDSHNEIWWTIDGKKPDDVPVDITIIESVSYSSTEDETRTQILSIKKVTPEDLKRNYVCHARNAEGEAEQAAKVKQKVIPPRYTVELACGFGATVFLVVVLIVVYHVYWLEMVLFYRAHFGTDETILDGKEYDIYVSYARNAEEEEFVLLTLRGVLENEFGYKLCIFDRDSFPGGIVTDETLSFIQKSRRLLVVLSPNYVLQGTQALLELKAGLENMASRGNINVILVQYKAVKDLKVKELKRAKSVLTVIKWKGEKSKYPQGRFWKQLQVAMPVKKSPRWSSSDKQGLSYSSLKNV

Row | Binder | binding result
25 | B1 | no binding (tested: 1 ug/ml)
26 | B2 | no binding (tested: 1 ug/ml)
27 | B3 | no binding (tested: 1 ug/ml)
28 | B4 | no binding (tested: 1 ug/ml)
29 | B5 | no binding (tested: 1 ug/ml)
30 | B6 | no binding (tested: 1 ug/ml)

The binders below were run against T4, mouse IL1RAP (Met1-Val570 plus Myc-DDK) on transfected 293 cells (Mus musculus, UniProt Q61730 21-570) (assay: flow cytometry on 293 cells expressing mouse IL1RAP (293-puro-mouseIL1RAP) vs 293T-puro [cont.]).
T4 construct: whole, on cells; also called MR223729
Method: as §1

T4 sequence (Q61730 21-570): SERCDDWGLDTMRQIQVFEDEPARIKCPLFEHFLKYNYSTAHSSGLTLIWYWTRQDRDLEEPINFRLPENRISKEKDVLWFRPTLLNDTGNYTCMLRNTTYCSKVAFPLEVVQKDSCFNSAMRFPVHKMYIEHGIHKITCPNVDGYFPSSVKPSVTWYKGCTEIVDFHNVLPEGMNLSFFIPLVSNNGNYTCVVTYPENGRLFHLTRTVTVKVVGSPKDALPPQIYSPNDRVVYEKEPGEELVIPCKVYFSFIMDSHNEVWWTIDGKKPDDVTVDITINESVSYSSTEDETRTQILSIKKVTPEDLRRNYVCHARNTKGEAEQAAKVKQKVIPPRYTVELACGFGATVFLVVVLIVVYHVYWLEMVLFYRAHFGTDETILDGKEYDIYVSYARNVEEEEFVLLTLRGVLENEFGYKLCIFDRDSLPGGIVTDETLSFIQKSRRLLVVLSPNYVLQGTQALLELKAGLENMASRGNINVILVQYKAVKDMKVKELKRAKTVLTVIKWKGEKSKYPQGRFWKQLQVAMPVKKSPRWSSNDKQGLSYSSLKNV

Row | Binder | binding result
31 | B1 | no binding (tested: 1 ug/ml)
32 | B2 | no binding (tested: 1 ug/ml)
33 | B4 | no binding (tested: 1 ug/ml)
34 | B6 | no binding (tested: 1 ug/ml)
